Results taken from publication PMC7917791.

Molecular target: HAP1 phage capsid (T4 phage mutant with a nonsense mutation in the hoc gene, no functional Hoc protein on the capsid) (T4 phage (mutant HAP1))
Test: SEC; RFP-Hoc and new HAP1 virions produced together in infected E. coli; filtered lysate on Sepharose 4B (2.5 x 95 cm), 0.063 M phosphate buffer pH 7.2, 0.3 mL/min; phages eluted in the highest molecular weight fraction (A), non-incorporated RFP-Hoc in fraction B; fluorescence and titer of the fractions measured

RFP-Hoc fusion (red fluorescent protein fused to the N-terminal end of the T4 phage Hoc protein), sequence (P18056 whole entry, the tested form may be a part): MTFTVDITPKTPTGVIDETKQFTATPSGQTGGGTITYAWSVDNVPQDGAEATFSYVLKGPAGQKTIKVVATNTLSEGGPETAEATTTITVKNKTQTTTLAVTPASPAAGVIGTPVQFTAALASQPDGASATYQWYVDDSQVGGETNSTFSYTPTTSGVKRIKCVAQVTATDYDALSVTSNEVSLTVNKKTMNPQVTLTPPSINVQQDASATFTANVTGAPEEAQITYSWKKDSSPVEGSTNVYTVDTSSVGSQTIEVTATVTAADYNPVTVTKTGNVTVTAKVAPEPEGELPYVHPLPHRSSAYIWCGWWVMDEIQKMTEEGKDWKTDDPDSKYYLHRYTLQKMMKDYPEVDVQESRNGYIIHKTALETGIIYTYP

RFP-Hoc fusion (red fluorescent protein fused to the N-terminal end of the T4 phage Hoc protein) (from UniProt P18056 1-376) (natural protein)
fluorescence of the phage fraction A after size exclusion chromatography: 5.12e+06 a.u.
